Laboratory results taken from paper PMC3103433 (2011).

Key:
[1] = target: VAMP2 (UniProt P63044); experiment: GST pull-down, anti-Munc18c and anti-pTyr blots; settings: reference: Munc18c incubated without CIRK; sites Y521
[2] = target: Syntaxin 4 (Sx4) cytosolic domain, 1-273 (UniProt P70452); experiment: GST pull-down, anti-Munc18c and anti-pTyr blots; settings: reference: Munc18c incubated without CIRK; sites Y521
[3] = target: CIRK-treated Munc18c; experiment: GST pull-down, anti-Munc18c immunoblot quantification; settings: 1 μg GST fusion on glutathione-Sepharose, 1 μg Munc18c pre-treated with 370 ng CIRK for 150 min, binding buffer, overnight, 4°C, n=3, read off a plot, scale: % of control Munc18c bound to wild-type Sx4

Chain of Sx4-GST, wild-type Syntaxin 4 cytosolic domain (residues 1-273) (P70452 whole entry L173A/E174A, looked up, the tested form may be a part): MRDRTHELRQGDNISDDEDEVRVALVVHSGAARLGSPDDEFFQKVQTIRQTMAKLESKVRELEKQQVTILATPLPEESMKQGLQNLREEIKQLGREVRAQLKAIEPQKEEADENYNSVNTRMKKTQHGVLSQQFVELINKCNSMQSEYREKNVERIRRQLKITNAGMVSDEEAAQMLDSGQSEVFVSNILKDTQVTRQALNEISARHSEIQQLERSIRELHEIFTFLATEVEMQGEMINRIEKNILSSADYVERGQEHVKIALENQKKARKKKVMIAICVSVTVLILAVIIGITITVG
Chain of Sx4 lacking the N-terminal 36 amino acids (N36Δ), GST fusion (P70452 whole entry, looked up, stated change not applied, the tested form may be a part): as the sequence (P70452 whole entry L173A/E174A, looked up, the tested form may be a part) above, with A173L, A174E counted along it

In the case of “Munc18c (from UniProt Q60770) CIRK-treated Munc18c (pTyr form absent from pull-down)”, the “binding against the reference” value [1] is reported as “weaker”.
In the case of “Munc18c (from UniProt Q60770) Munc18c pre-treated with CIRK”, the other: percent decrease [2] is reported as 30%.
Substance “Sx4 lacking the N-terminal 36 amino acids (N36Δ), GST fusion (from UniProt P70452) L173A; E174A” has an other: % Munc18c bound relative to wild-type Sx4 ([3]; parent: est. 9) of 10.
Substance “Sx4-GST, wild-type Syntaxin 4 cytosolic domain (residues 1-273) (from UniProt P70452) L173A; E174A” has an other: % Munc18c bound relative to wild-type Sx4 ([3]; parent: est. 71) of 64.
